± gives the standard deviation of the averaged measurements.
System: Saccharomyces cerevisiae
Assay: protein stability index of tFT-peptide fusion (C-terminal peptide) (PSI (0-1 scale)); higher = more stable (slower turnover)
Conditions: genetic background: wild type; temperature: 37 C
Protocol: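 MPS profiling in S. cerevisiae of the tFT-X12 degron library: putative degron peptides plus stable controls, 12 aa, fused to the C-terminus of a sfGFP-mCherry timer. Cells are FACS-sorted into 8 mCherry/sfGFP bins and deep-sequenced. PSI runs from 0 (unstable) to 1 (stable). Backgrounds are wild type, das1Δ and doa10Δ at 30 °C, and wild type, das1Δ, cdc34-1 and cdc53-1 at 37 °C; 2-3 technical replicates each.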
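Also: PSI is a weighted mean of sequencing reads over stability bins, variants kept only with over 10 reads, mCherry proximal and sfGFP distal, peptide attached via GGGS linker.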

| Sequence | protein stability index |
| --- | --- |
| CREFLQSMLFYC | 0.56 ± 0.02 |
| CSAVYNLHLLYS | 0.6452 ± 0.0029 |
| CSFPTFRSLLLL | 0.438 ± 0.058 |
| CSPSCNIVRLVS | 0.198 ± 0.059 |
| CTYSLSVLFVFF | 0.4462 ± 0.0024 |
| CVFFCVLVCFLS | 0.377 ± 0.0062 |
| CVLSWSLFVVVW | 0.0346 ± 0.015 |
| CVVFLWCGGCWV | 0.734 ± 0.041 |
| CVVLCLFCWCML | 0.425 ± 0.0082 |
| CYCSIGCLIIFS | 0.4089 ± 0.003 |
| DALHPCIIYLTC | 0.466 ± 0.013 |
| DECQLCNRDWRG | 0.733 ± 0.018 |
| DKKPMKKILLCI | 0.104 ± 0.0016 |
| DRLRSGLSLLLA | 0.583 ± 0.0065 |
| DRQMRCVHIHYL | 0.532 ± 0.0088 |
| DRYSFYGYVVVL | 0.291 ± 0.041 |
| DVCGVRYVLFVL | 0.597 ± 0.026 |
| DVRLVLCEMIKG | 0.601 ± 0.0076 |
| DVYIVLFIIKHG | 0.3 ± 0.0092 |
| EFFTLYDLVRFI | 0.434 ± 0.04 |

| Sequence | protein stability index |
| --- | --- |
| ELTYVYRTALIA | 0.0995 ± 0.017 |
| EMSIISVLRVIS | 0.395 ± 0.015 |
| ERFILVGMFGSW | 0.701 ± 0.022 |
| ERWSPWIVVFTN | 0.278 ± 0.029 |
| ESVPLLIVLHLV | 0.07176 ± 0.00058 |
| ETVHVISLIAIG | 0.49577 ± 7e-05 |
| EWFFCLGLFRFH | 0.433 ± 0.00045 |
| FASVFCVVTGYV | 0.58585 ± 7.1e-07 |
| FCALWLCFRLMV | 0.265 ± 0.028 |
| FCCLVLDLEVSG | 0.541 ± 0.0084 |
| FCLFMFVPLLPL | 0.5642 ± 0.003 |
| FCMLCVVFLGSL | 0.596 ± 0.026 |
| FCVCLAVTCCGG | 0.42 ± 0.011 |
| FDWLFFFVNFVV | 0.24 ± 0.0068 |
| FFAFLRFFIFYW | 0.451 ± 0.026 |
| FFALFLPLACFC | 0.455 ± 0.0076 |
| FFCCFVFVLGFC | 0.393 ± 0.0054 |
| FFCSILLGIILL | 0.451 ± 0.011 |
| FFFCFFIFCFSL | 0.396 ± 0.036 |
| FFFFSFFLATFS | 0.39074 ± 0.00019 |

| Sequence | protein stability index |
| --- | --- |
| FFGVFIFPVSCR | 0.291 ± 0.028 |
| FFGVLFRVSLFF | 0.262 ± 0.0057 |
| FFLLLLRPPLVM | 0.41225 ± 0.0001 |
| FFRFCFLLLASS | 0.355 ± 0.011 |
| FFSRSLGAGVAA | 0.724 ± 0.033 |
| FFVEFFLLCFCS | 0.515 ± 0.033 |
| FFVSFFFFLWLV | 0.189 ± 0.015 |
| FGFFDIKLPVVA | 0.518 ± 0.017 |
| FGVECDLCLFCC | 0.46 ± 0.015 |
| FGVVRVSIPVGV | 0.316 ± 0.007 |
| FIFCLSCGVWGG | 0.5582 ± 0.0053 |
| FILLFGFSHWVW | 0.476 ± 0.036 |
| FILLTLVFGCAS | 0.375 ± 0.0071 |
| FLAFLEPRVCCA | 0.33 ± 0.029 |
| FLAFSYIRLLFF | 0.178 ± 0.031 |
| FLCWLSFIPLLS | 0.32 ± 0.015 |
| FLFFCGWVSLFG | 0.479 ± 0.025 |
| FLFFMGVGVVLY | 0.425 ± 0.0071 |
| FLFIFFFFLISF | 0.295 ± 0.011 |
| FLFLFLFPFSLI | 0.4997 ± 0.0009 |

System: Saccharomyces cerevisiae
Assay: as above
Conditions: genetic background: wild type; temperature: 30 C

| Sequence | protein stability index |
| --- | --- |
| CREFLQSMLFYC | 0.373 ± 0.1 |
| CSAVYNLHLLYS | 0.519 ± 0.076 |
| CSFPTFRSLLLL | 0.3 ± 0.078 |
| CSPSCNIVRLVS | 0.294 ± 0.022 |
| CTYSLSVLFVFF | 0.382 ± 0.024 |
| CVFFCVLVCFLS | 0.369 ± 0.036 |
| CVLSWSLFVVVW | 0.044 ± 0.026 |
| CVVFLWCGGCWV | 0.503 ± 0.076 |
| CVVLCLFCWCML | 0.347 ± 0.048 |
| CYCSIGCLIIFS | 0.378 ± 0.074 |
| DALHPCIIYLTC | 0.341 ± 0.013 |
| DECQLCNRDWRG | 0.7185 ± 0.0063 |
| DKKPMKKILLCI | 0.151 ± 0.029 |
| DRLRSGLSLLLA | 0.4925 ± 0.0035 |
| DRQMRCVHIHYL | 0.412 ± 0.021 |
| DRYSFYGYVVVL | 0.261 ± 0.0095 |
| DVCGVRYVLFVL | 0.502 ± 0.013 |
| DVRLVLCEMIKG | 0.513 ± 0.036 |
| DVYIVLFIIKHG | 0.241 ± 0.055 |
| EFFTLYDLVRFI | 0.38 ± 0.025 |

| Sequence | protein stability index |
| --- | --- |
| ELTYVYRTALIA | 0.183 ± 0.045 |
| EMSIISVLRVIS | 0.369 ± 0.035 |
| ERFILVGMFGSW | 0.532 ± 0.048 |
| ERWSPWIVVFTN | 0.278 ± 0.029 |
| ESVPLLIVLHLV | 0.0881 ± 0.034 |
| ETVHVISLIAIG | 0.47 ± 0.037 |
| EWFFCLGLFRFH | 0.369 ± 0.045 |
| FASVFCVVTGYV | 0.48 ± 0.072 |
| FCALWLCFRLMV | 0.174 ± 0.037 |
| FCCLVLDLEVSG | 0.424 ± 0.0079 |
| FCLFMFVPLLPL | 0.453 ± 0.052 |
| FCMLCVVFLGSL | 0.505 ± 0.034 |
| FCVCLAVTCCGG | 0.354 ± 0.01 |
| FDWLFFFVNFVV | 0.2459 ± 0.00064 |
| FFAFLRFFIFYW | 0.448 ± 0.063 |
| FFALFLPLACFC | 0.429 ± 0.013 |
| FFCCFVFVLGFC | 0.419 ± 0.021 |
| FFCSILLGIILL | 0.399 ± 0.04 |
| FFFCFFIFCFSL | 0.3698 ± 0.0032 |
| FFFFSFFLATFS | 0.305 ± 0.026 |

| Sequence | protein stability index |
| --- | --- |
| FFGVFIFPVSCR | 0.291 ± 0.022 |
| FFGVLFRVSLFF | 0.266 ± 0.035 |
| FFLLLLRPPLVM | 0.374 ± 0.051 |
| FFRFCFLLLASS | 0.25 ± 0.061 |
| FFSRSLGAGVAA | 0.644 ± 0.21 |
| FFVEFFLLCFCS | 0.476 ± 0.0053 |
| FFVSFFFFLWLV | 0.228 ± 0.0027 |
| FGFFDIKLPVVA | 0.486 ± 0.018 |
| FGVECDLCLFCC | 0.376 ± 0.018 |
| FGVVRVSIPVGV | 0.368 ± 0.012 |
| FIFCLSCGVWGG | 0.414 ± 0.02 |
| FILLFGFSHWVW | 0.4316 ± 0.0023 |
| FILLTLVFGCAS | 0.309 ± 0.025 |
| FLAFLEPRVCCA | 0.343 ± 0.013 |
| FLAFSYIRLLFF | 0.237 ± 0.012 |
| FLCWLSFIPLLS | 0.38 ± 0.02 |
| FLFFCGWVSLFG | 0.424 ± 0.024 |
| FLFFMGVGVVLY | 0.295 ± 0.013 |
| FLFIFFFFLISF | 0.284 ± 0.018 |
| FLFLFLFPFSLI | 0.431 ± 0.0054 |

Reference: the supplement of paper PMC10724198
